According to the supplement of paper PMC11780869:

System: Bacillus subtilis
Assay: cleaved RNA product abundance (RNA/gDNA barcode ratio) relative to median wild-type variant (ratio to wild type); higher = more accumulation of the downstream cleavage product
Conditions: cleavage site: cggR-gapA (positions -7 to +36 mutated)
Method in brief: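 Cleaved product abundance was measured with barcoded reporter mRNAs (truncated aprE or tetM) carrying mutagenized RNase Y cleavage-site windows in the B. subtilis chromosome. Cultures in LB at 37°C grew from OD600 0.0003 to 0.3. Gel-selected cleaved RNA was reverse transcribed and barcode-sequenced with genomic DNA barcodes, and the RNA:gDNA barcode ratio per construct was scaled to the median construct bearing the unmutated site.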

[1] = experiment (reporter, strain, medium): exp 4a: truncated aprE reporter, strain BJT201 with 2% xylose (RNase J1 expressed)
[2] = experiment (reporter, strain, medium): exp 2b: truncated aprE reporter, strain BJT200
[3] = experiment (reporter, strain, medium): exp 6: tetM reporter, strain 168

Row | Sequence | cleaved RNA product abundance [1] | cleaved RNA product abundance [2] | cleaved RNA product abundance [3]
1 | ACAGACGAAGGAGCCGCAAATAAATTATTAAGGGATGAATATTCCCTCAATATAAATATCTCTCACTTATTTAAA | 0.421 | – | –
2 | ACAGACGAAGGAGCCGCAAATAACTTATTAAGGGATGAATAATCCCTCAATATAAATATCTCTCACTTATTTAAA | 0.465 | 0.465 | 0.719
3 | ACAGACGAAGGAGCCGCAAATAAGATATTAAGGGATGAATAATCCCTCAATATAAATATCTCTCACTTATTTAAA | 1.08 | – | 0.738
4 | ACAGACGAAGGAGCCGCAAATAAGCTATTAAGGGATGAATAATCCCTCAATATAAATATCTCTCACTTATTTAAA | 0.149 | – | –
5 | ACAGACGAAGGAGCCGCAAATAAGTAATTAAGGGATGAATAATCCCTCAATATAAATATCTCTCACTTATTTAAA | 0.339 | 0.246 | –
6 | ACAGACGAAGGAGCCGCAAATAAGTCATTAAGGGATGAATAATCCCTCAATATAAATATCTCTCACTTATTTAAA | 0.28 | – | –
7 | ACAGACGAAGGAGCCGCAAATAAGTTAATAAGGGATGAATAATCCCCCAATATAAATATCTCTCACTTATTTAAA | – | 0.208 | –
8 | ACAGACGAAGGAGCCGCAAATAAGTTAATAAGGGATGAATAATCCCTCAATATAAATATCTCTCACTTATTTAAA | 0.343 | 0.247 | –
9 | ACAGACGAAGGAGCCGCAAATAAGTTAGTAAGGGATGAATAATCCCTCAATATAAATATCTCTCACTTATTTAAA | 0.549 | 0.305 | –
10 | ACAGACGAAGGAGCCGCAAATAAGTTATAAAAGGATGAATAATCCCTCAATATAAATATCTCTCACTTATTTAAA | 0.211 | – | –
11 | ACAGACGAAGGAGCCGCAAATAAGTTATAAAGGGATGAATAATCCCTCAATATAAATATCTCTCACTTATTTAAA | 0.421 | 0.337 | –
12 | ACAGACGAAGGAGCCGCAAATAAGTTATAAAGGGATGTATAATCCCTCAATATAAATATCTCTCACTTATTTAAA | – | 0.384 | –
13 | ACAGACGAAGGAGCCGCAAATAAGTTATCAAGGGATGAATAATCCCTCAATATAAATATCTCTCACTTATTTAAA | 0.278 | – | –
14 | ACAGACGAAGGAGCCGCAAATAAGTTATGAAGGGATGAATAATCCCTCAATATAAATATCTCTCACTTATTTAAA | 0.558 | – | –
15 | ACAGACGAAGGAGCCGCAAATAAGTTATTAAAGGATGAATAATCCCTCAATATAAATATCTCTCACTTATTTAAA | 0.218 | 0.195 | 0.19
16 | ACAGACGAAGGAGCCGCAAATAAGTTATTAAAGGATGAATAATCCCTCAATATAGATATCTCTCACTTATTTAAA | 0.188 | – | –
17 | ACAGACGAAGGAGCCGCAAATAAGTTATTAACGGATGAATAATCCCTCAATATAAATATCTCTCACTTATTTAAA | 0.157 | 0.113 | –
18 | ACAGACGAAGGAGCCGCAAATAAGTTATTAAGAGATGAATAATCCCTCAATATAAATATCTCTCACTTATTTAAA | 0.13 | 0.12 | –
19 | ACAGACGAAGGAGCCGCAAATAAGTTATTAAGAGATGAATAATCCCTCAATATAAATATTTCTCACTTATTTAAA | 0.124 | – | –

Row | Sequence | cleaved RNA product abundance [1] | cleaved RNA product abundance [2] | cleaved RNA product abundance [3]
20 | ACAGACGAAGGAGCCGCAAATAAGTTATTAAGCGATGAATAATCCCTCAATATAAATATCTCTCACTTATTTAAA | 0.134 | – | –
21 | ACAGACGAAGGAGCCGCAAATAAGTTATTAAGGAATGAATAATCCCTCAATATAAATATCTCTCACTTATTTAAA | 0.129 | 0.0785 | –
22 | ACAGACGAAGGAGCCGCAAATAAGTTATTAAGGCATGAATAATCCCTCAATATAAATATCTCTCACTTATTTAAA | 0.0954 | 0.0924 | –
23 | ACAGACGAAGGAGCCGCAAATAAGTTATTAAGGCATGACTAATCCCTCAATATAAATATCTCTCACTTATTTAAA | 0.144 | – | –
24 | ACAGACGAAGGAGCCGCAAATAAGTTATTAAGGGAAGAATAATCCCTCAATATAAATATCTCTCACTTATTTAAA | 0.366 | 0.497 | –
25 | ACAGACGAAGGAGCCGCAAATAAGTTATTAAGGGACGAATAATCCCTCAATATAAATATCTCTCACTTATTTAAA | 0.802 | 0.65 | –
26 | ACAGACGAAGGAGCCGCAAATAAGTTATTAAGGGAGGAATAATCCCTCAATATAAATATCTCTCACTTATTTAAA | 0.469 | 0.554 | –
27 | ACAGACGAAGGAGCCGCAAATAAGTTATTAAGGGATAAATAATCCCTCAATATAAATATCTCTCACTTATTTAAA | 1.03 | – | –
28 | ACAGACGAAGGAGCCGCAAATAAGTTATTAAGGGATCAATAATCCCTCAATATAAATATCTCTCACTTATTTAAA | 0.721 | – | 0.865
29 | ACAGACGAAGGAGCCGCAAATAAGTTATTAAGGGATGAAAAATCCCTCAATATAAATATCTCTCACTTATTTAAA | 0.841 | 0.805 | 0.882
30 | ACAGACGAAGGAGCCGCAAATAAGTTATTAAGGGATGAACAATCCCTCAATATAAATATCTCTCACTTATTTAAA | 0.924 | 0.897 | –
31 | ACAGACGAAGGAGCCGCAAATAAGTTATTAAGGGATGAATAAACCCTCAATATAAATATCTCTCACTTATTTAAA | 0.39 | – | –
32 | ACAGACGAAGGAGCCGCAAATAAGTTATTAAGGGATGAATAACCCCTCAATATAAATATCTCTCACTTATTTAAA | 0.494 | 0.582 | –
33 | ACAGACGAAGGAGCCGCAAATAAGTTATTAAGGGATGAATAAGCCCTCAATATAAATATCTCTCACTTATTTAAA | 0.476 | – | –
34 | ACAGACGAAGGAGCCGCAAATAAGTTATTAAGGGATGAATAATACCTCAATATAAATATCTCTCACTTATTTAAA | 0.165 | 0.112 | –
35 | ACAGACGAAGGAGCCGCAAATAAGTTATTAAGGGATGAATAATCACTCAATATAAATATCTCTCACTTATTTAAA | 0.107 | 0.118 | –
36 | ACAGACGAAGGAGCCGCAAATAAGTTATTAAGGGATGAATAATCCATCAATATAAATATCTCTCACTTATTTAAA | 0.261 | 0.172 | –
37 | ACAGACGAAGGAGCCGCAAATAAGTTATTAAGGGATGAATAATCCCACAATATAAATAACTCTCACTTATTTAAA | 0.22 | – | –
38 | ACAGACGAAGGAGCCGCAAATAAGTTATTAAGGGATGAATAATCCCACAATATAAATATCTCTCACTTATTTAAA | 0.187 | 0.233 | –
